The record followed here is IntAct's records for PubMed 24275654.

To fix the notation:
B1: Tubulin beta chain (Homo sapiens), P07437 (parent)
chain: MREIVHIQAGQCGNQIGAKFWEVISDEHGIDPTGTYHGDSDLQLDRISVYYNEATGGKYVPRAILVDLEPGTMDSVRSGPFGQIFRPDNFVFGQSGAGNNWAKGHYTEGAELVDSVLDVVRKEAESCDCLQGFQLTHSLGGGTGSGMGTLLISKIREEYPDRIMNTFSVVPSPKVSDTVVEPYNATLSVHQLVENTDETYCIDNEALYDICFRTLKLTTPTYGDLNHLVSATMSGVTTCLRFPGQLNADLRKLAVNMVPFPRLHFFMPGFAPLTSRGSQQYRALTVPELTQQVFDAKNMMAACDPRHGRYLTVAAVFRGRMSMKEVDEQMLNVQNKNSSYFVEWIPNNVKTAVCDIPPRGLKMAVTFIGNSTAIQELFKRISEQFTAMFRRKAFLHWYTGEGMDEMEFTEAESNMNDLVSEYQQYQDATAEEEEDFGEEAEEEA
B2: Tubulin beta-4A chain (Homo sapiens), P04350 (parent)
chain: MREIVHLQAGQCGNQIGAKFWEVISDEHGIDPTGTYHGDSDLQLERINVYYNEATGGNYVPRAVLVDLEPGTMDSVRSGPFGQIFRPDNFVFGQSGAGNNWAKGHYTEGAELVDAVLDVVRKEAESCDCLQGFQLTHSLGGGTGSGMGTLLISKIREEFPDRIMNTFSVVPSPKVSDTVVEPYNATLSVHQLVENTDETYCIDNEALYDICFRTLKLTTPTYGDLNHLVSATMSGVTTCLRFPGQLNADLRKLAVNMVPFPRLHFFMPGFAPLTSRGSQQYRALTVPELTQQMFDAKNMMAACDPRHGRYLTVAAVFRGRMSMKEVDEQMLSVQSKNSSYFVEWIPNNVKTAVCDIPPRGLKMAATFIGNSTAIQELFKRISEQFTAMFRRKAFLHWYTGEGMDEMEFTEAESNMNDLVSEYQQYQDATAEEGEFEEEAEEEVA
B3: Tubulin beta-6 chain (Homo sapiens), Q9BUF5 (parent)
chain: MREIVHIQAGQCGNQIGTKFWEVISDEHGIDPAGGYVGDSALQLERINVYYNESSSQKYVPRAALVDLEPGTMDSVRSGPFGQLFRPDNFIFGQTGAGNNWAKGHYTEGAELVDAVLDVVRKECEHCDCLQGFQLTHSLGGGTGSGMGTLLISKIREEFPDRIMNTFSVMPSPKVSDTVVEPYNATLSVHQLVENTDETYCIDNEALYDICFRTLKLTTPTYGDLNHLVSATMSGVTTSLRFPGQLNADLRKLAVNMVPFPRLHFFMPGFAPLTSRGSQQYRALTVPELTQQMFDARNMMAACDPRHGRYLTVATVFRGPMSMKEVDEQMLAIQSKNSSYFVEWIPNNVKVAVCDIPPRGLKMASTFIGNSTAIQELFKRISEQFSAMFRRKAFLHWFTGEGMDEMEFTEAESNMNDLVSEYQQYQDATANDGEEAFEDEEEEIDG

One assay covers variants of B1. The note with it: with lrrk2_human LRRK2, Q5S007.
Chain of lrrk2_human LRRK2, Q5S007 (Q5S007 whole entry): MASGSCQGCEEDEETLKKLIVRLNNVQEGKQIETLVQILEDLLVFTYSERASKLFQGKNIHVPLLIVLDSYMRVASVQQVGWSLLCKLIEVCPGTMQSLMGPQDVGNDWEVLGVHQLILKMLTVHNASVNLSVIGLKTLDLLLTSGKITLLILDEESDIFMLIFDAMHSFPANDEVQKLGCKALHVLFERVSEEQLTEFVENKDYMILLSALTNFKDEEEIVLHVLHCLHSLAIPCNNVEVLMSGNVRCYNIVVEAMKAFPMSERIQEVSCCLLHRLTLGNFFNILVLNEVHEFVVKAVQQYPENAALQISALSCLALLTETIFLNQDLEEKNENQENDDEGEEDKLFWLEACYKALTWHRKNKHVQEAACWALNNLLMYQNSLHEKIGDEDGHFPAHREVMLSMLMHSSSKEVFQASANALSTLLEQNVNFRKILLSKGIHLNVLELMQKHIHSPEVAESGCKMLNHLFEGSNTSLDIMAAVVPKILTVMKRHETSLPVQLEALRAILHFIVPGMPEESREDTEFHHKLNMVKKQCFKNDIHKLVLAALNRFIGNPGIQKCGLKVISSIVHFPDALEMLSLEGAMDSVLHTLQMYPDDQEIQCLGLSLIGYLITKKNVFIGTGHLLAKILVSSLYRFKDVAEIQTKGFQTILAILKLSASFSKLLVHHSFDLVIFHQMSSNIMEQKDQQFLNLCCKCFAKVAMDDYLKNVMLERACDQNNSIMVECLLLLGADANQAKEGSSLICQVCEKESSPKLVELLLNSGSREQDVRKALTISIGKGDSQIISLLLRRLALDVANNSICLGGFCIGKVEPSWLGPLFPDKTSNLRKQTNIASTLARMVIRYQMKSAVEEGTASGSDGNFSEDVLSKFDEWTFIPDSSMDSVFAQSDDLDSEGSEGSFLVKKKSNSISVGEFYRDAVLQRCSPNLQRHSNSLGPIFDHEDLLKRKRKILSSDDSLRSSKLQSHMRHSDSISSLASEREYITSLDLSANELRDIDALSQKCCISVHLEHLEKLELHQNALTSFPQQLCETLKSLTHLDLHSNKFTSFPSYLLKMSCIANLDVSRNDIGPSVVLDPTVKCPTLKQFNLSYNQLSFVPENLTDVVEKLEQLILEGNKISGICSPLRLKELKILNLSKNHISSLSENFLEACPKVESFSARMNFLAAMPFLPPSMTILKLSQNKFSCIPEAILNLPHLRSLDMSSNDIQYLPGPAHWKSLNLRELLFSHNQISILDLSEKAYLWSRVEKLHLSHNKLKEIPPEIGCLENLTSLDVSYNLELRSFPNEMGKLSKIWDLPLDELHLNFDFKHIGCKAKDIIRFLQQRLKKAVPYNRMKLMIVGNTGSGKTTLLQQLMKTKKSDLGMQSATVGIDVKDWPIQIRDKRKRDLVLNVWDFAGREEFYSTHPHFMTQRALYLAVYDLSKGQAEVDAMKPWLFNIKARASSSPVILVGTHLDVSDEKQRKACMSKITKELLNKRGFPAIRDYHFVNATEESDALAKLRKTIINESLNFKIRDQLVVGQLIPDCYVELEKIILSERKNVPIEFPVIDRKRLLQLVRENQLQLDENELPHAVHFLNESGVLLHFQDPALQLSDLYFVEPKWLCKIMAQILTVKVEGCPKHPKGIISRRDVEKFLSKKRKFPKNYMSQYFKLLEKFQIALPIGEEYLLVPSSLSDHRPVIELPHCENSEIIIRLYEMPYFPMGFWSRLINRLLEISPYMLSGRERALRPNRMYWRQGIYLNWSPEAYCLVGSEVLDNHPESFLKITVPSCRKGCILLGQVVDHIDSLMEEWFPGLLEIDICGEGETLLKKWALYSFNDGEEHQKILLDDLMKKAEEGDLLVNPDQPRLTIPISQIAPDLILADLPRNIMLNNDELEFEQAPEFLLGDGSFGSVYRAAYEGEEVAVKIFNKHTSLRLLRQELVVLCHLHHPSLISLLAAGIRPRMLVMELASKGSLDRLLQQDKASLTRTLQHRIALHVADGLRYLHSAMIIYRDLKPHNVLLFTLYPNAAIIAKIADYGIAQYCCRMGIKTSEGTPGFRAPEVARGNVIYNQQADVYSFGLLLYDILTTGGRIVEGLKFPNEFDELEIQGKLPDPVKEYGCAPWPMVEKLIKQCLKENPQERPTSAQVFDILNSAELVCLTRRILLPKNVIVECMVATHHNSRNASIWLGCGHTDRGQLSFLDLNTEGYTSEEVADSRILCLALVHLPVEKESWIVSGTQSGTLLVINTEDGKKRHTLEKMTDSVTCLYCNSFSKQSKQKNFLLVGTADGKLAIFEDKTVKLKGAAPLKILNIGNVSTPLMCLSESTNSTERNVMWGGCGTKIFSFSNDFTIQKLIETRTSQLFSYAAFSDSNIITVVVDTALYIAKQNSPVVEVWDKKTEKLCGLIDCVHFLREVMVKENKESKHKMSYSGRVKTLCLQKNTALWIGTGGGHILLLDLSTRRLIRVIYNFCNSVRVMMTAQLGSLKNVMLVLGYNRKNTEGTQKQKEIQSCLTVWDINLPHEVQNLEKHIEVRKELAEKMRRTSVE
As to A364E, the “effect of a mutation on the interaction” value is on record as “disrupting interaction”.
Regarding A364D, the “effect of a mutation on the interaction” value is reported as “disrupting interaction”.
Consider A364S, for which the “effect of a mutation on the interaction” value is on record as “disrupting interaction”.

In another assay the parent is B2. As to conditions: with lrrk2_human LRRK2, Q5S007.
Regarding A364S, the “effect of a mutation on the interaction” value is given as “disrupting interaction”.
Consider A364E, for which the “effect of a mutation on the interaction” value is “disrupting interaction”.
As for A364D, the “effect of a mutation on the interaction” value is “disrupting interaction”.

The variants in a further assay derive from B3. The note with it: with lrrk2_human LRRK2, Q5S007.
Consider P320R;A364S, for which the “effect of a mutation on the interaction” value was “disrupting interaction”.
Regarding P320R;K362S, the “effect of a mutation on the interaction” value is on record as “disrupting interaction”.
